Assay results from PMC9142583, “Structural basis for broad anti-phage immunity by DISARM” (Nature Communications, 2022).

What was measured:
DrmA;DrmB [1] = molecular target: T1, DrmA;DrmB (Serratia sp. SCBI;Serratia sp. SCBI, UniProt A0A979HMQ0;A0A979HMQ1 1-1325;1-619, |); assay: cryo-EM; 1 mM ADP; EMSA: 150 mM NaCl, 25 mM HEPES pH 7.4, 30 min room temperature, 5 nM DNA; 1.5% agarose, 1x TBE; details: protein: recombinant;recombinant; tags: none stated;tagged (Ni-NTA purification); copies: 1;1; label: none; hairpin; 19-bp stem, 5-nt loop, 5' tail 7 nt, 3' tail 21 nt (Methods: 6 and 20)
DrmA;DrmB [2] = molecular target: T1, DrmA;DrmB; assay: EMSA; 1 µM protein; EMSA: 150 mM NaCl, 25 mM HEPES pH 7.4, 30 min room temperature, 5 nM DNA; 1.5% agarose, 1x TBE; details: protein: recombinant;recombinant, tags: none stated;tagged (Ni-NTA purification), copies: 1;1, label: 5'-Cy5 on strand 1
[3] = molecular target: T2, DrmA(∆loop) / DrmA(∆TL);DrmB (Serratia sp. SCBI;Serratia sp. SCBI, UniProt A0A979HMQ0;A0A979HMQ1 1-1325;1-619, del181-233|); assay: as above; details: protein: recombinant;recombinant, tags: none stated;tagged (Ni-NTA purification), copies: 1;1, label: 5'-Cy5 on strand 1
DrmA;DrmB [4] = molecular target: T1, DrmA;DrmB; assay: EMSA; binding at 1 µM protein or higher; smeared (dissociation); EMSA: 150 mM NaCl, 25 mM HEPES pH 7.4, 30 min room temperature, 5 nM DNA; 1.5% agarose, 1x TBE; details: protein: recombinant;recombinant; tags: none stated;tagged (Ni-NTA purification); copies: 1;1; label: 5'-Cy5; single strand
[5] = molecular target: T2, DrmA(∆loop) / DrmA(∆TL);DrmB; assay: EMSA; no dissociation smear; second super-shift at 1 µM or higher; EMSA: 150 mM NaCl, 25 mM HEPES pH 7.4, 30 min room temperature, 5 nM DNA; 1.5% agarose, 1x TBE; details: protein: recombinant;recombinant; tags: none stated;tagged (Ni-NTA purification); copies: 1;1; label: 5'-Cy5; single strand

B1: DNA stem loop (forked hairpin) (structured_DNA)
DNA: TTTTTTTCATCGATGAGCACTGCTATTCCCTAGCAGTGCTCATCGATGATTTTCATCGATGAGCGGTTTT
modifications: none (unmethylated)
DrmA;DrmB [1]
  binding result: binds

B2: 3'ovh DNA (75-nt + 5' block) (mixed)
DNA 1: ATTTTGACAGCCCACATGGCTTGATGAGTGGCGCACTCGCCAGCCTGAGCATGGCGAAAACTCCTCCAGTCTGCT
DNA 2: GCCATGTGGGCTGTCAAAAT
DrmA;DrmB [2]; 3' overhang 55 nt
  binding result: no binding
[3]; 3' overhang 55 nt
  binding result: binds

B3: 5'ovh DNA (75-nt + 3' block) (mixed)
DNA 1: B2 DNA 1
DNA 2: AGCAGACTGGAGGAGTTTTC
DrmA;DrmB [2]; 5' overhang 55 nt
  binding result: binds
[3]; 5' overhang 55 nt
  binding result: binds

B4: 75-bp dsDNA (dsDNA)
DNA 1: B2 DNA 1
DNA 2: AGCAGACTGGAGGAGTTTTCGCCATGCTCAGGCTGGCGAGTGCGCCACTCATCAAGCCATGTGGGCTGTCAAAAT
DrmA;DrmB [2]; blunt
  binding result: no binding
[3]; blunt
  binding result: binds

B5: 75-nt Cy5 ssDNA (ssDNA)
DNA: B2 DNA 1
DrmA;DrmB [4]
  binding result: binds
[5]
  binding result: binds
